For this series the following is noted: pH 7, reversible: no, whole UniProt chain shown; for denaturant m value / denaturant midpoint (higher = more stable): GdnHCl, Tris-HCl 50 mM; for Tm: Thermal, HEPES 20 mM.
The mark [1] stands for this setting: Sulfolobus acidocaldarius (strain ATCC 33909 / DSM 639 / JCM 8929 / NBRC 15157 / NCIMB 11770), 25 °C, CD.
Setting [2] is: Sulfolobus acidocaldarius (strain ATCC 33909 / DSM 639 / JCM 8929 / NBRC 15157 / NCIMB 11770), 25 °C, Fluorescence.
[3] abbreviates: Sulfolobus acidocaldarius (strain ATCC 33909 / DSM 639 / JCM 8929 / NBRC 15157 / NCIMB 11770), 50 °C, CD.
The mark [4] stands for this setting: Thermus thermophilus (strain ATCC 27634 / DSM 579 / HB8), 25 °C, CD.
Setting [5] is: Thermus thermophilus (strain ATCC 27634 / DSM 579 / HB8), 25 °C, Fluorescence.
[6] abbreviates: Escherichia coli (strain K12), 25 °C, CD.
[7] abbreviates: Escherichia coli (strain K12), 25 °C, Fluorescence.

The text below walks through data of FireProtDB (doi:10.1006/abbi.1998.1072).

Several values for one entry are separate records, joined by “and”; a condition that tells them apart may be missing. Equal entries are not always repeated.

B1: Inorganic pyrophosphatase wild type, P50308 (protein)
chain: MKLSPGKNAPDVVNVLVEIPQGSNIKYEYDDEEGVIKVDRVLYTSMNYPFNYGFIPGTLEEDGDPLDVLVITNYQLYPGSVIEVRPIGILYMKDEEGEDAKIVAVPKDKTDPSFSNIKDINDLPQATKNKIVHFFEHYKELEPGKYVKISGWGSATEAKNRIQLAIKRVSGGQ
For B1, the denaturant m value was 5.5 kcal/mol/M under setting [1]; 8.13 kcal/mol/M and 6.93 kcal/mol/M and 5.98 kcal/mol/M under setting [2]; 6.93 kcal/mol/M and 5.74 kcal/mol/M under setting [3]. In addition, the “denaturant midpoint (higher = more stable)” value (from here on “denaturant midpoint”) reads like this: under setting [1], 3.1 M; under setting [2], 3.2 M and 2.9 M and 3.1 M; under setting [3], 2.8 M and 2.9 M.

B2: Inorganic pyrophosphatase wild type, P38576 (protein)
chain: MANLKSLPVGDKAPEVVHMVIEVPRGSGNKYEYDPDLGAIKLDRVLPGAQFYPGDYGFIPSTLAEDGDPLDGLVLSTYPLLPGVVVEVRVVGLLLMEDEKGGDAKVIGVVAEDQRLDHIQDIGDVPEGVKQEIQHFFETYKALEAKKGKWVKVTGWRDRKAALEEVRACIARYKG
The Tm is the temperature at the midpoint of the melting transition. Take B2: the denaturant m value under setting [4] came to 5.74 kcal/mol/M and the denaturant m value under setting [5] amounted to 5.74 kcal/mol/M. The “denaturant midpoint” value reads like this: under setting [4], 4.7 M; under setting [5], 5.1 M and 4.7 M. The Tm turned out to be 86 °C (Thermus thermophilus (strain ATCC 27634 / DSM 579 / HB8), CD, EDTA 5 mM) and 96 °C (Thermus thermophilus (strain ATCC 27634 / DSM 579 / HB8), CD).

B3: Inorganic pyrophosphatase wild type, P0A7A9 (protein)
chain: MSLLNVPAGKDLPEDIYVVIEIPANADPIKYEIDKESGALFVDRFMSTAMFYPCNYGYINHTLSLDGDPVDVLVPTPYPLQPGSVIRCRPVGVLKMTDEAGEDAKLVAVPHSKLSKEYDHIKDVNDLPELLKAQIAHFFEHYKDLEKGKWVKVEGWENAEAAKAEIVASFERAKNK
Take B3: the denaturant m value runs as follows: under setting [6], 3.35 kcal/mol/M; under setting [7], 3.35 kcal/mol/M and 2.63 kcal/mol/M. Moreover, the “denaturant midpoint” value under setting [6] is 4.9 M; the “denaturant midpoint” value under setting [7] was 4.9 M and 4.5 M. Further, where the note is “Escherichia coli (strain K12), CD, EDTA 5 mM”, the Tm is 58 °C.
